In patent US20220386594A1 (IBI AG INNOVATIVE BIO INSECTICIDES, published 2022):
Substitutions are numbered along the chain they refer to.

T1: Helicoverpa armigera trehalase (Helicoverpa armigera)
T1 construct: the tag is not part of the printed entry; also called TRH; target TRH antigen
T1 chain: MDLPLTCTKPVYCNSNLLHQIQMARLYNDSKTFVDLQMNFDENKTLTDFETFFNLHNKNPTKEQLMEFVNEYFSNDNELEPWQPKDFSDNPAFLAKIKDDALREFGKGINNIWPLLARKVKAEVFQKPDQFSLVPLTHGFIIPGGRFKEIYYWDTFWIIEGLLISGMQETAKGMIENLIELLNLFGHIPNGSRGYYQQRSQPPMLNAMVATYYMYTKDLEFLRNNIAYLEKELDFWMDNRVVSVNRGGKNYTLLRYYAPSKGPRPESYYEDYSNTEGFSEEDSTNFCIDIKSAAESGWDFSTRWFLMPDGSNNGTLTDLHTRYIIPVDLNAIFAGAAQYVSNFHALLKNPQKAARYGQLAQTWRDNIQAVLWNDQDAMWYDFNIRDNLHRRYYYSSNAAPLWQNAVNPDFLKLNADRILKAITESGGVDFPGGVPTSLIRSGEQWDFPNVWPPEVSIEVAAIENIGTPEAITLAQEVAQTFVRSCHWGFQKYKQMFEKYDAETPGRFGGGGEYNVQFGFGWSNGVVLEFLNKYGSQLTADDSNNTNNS

T2: Helicoverpa armigera V-ATPase subunit c (Helicoverpa armigera)
T2 construct: also called V-ATPases Subunit C; ATPase V subunit c
T2 chain: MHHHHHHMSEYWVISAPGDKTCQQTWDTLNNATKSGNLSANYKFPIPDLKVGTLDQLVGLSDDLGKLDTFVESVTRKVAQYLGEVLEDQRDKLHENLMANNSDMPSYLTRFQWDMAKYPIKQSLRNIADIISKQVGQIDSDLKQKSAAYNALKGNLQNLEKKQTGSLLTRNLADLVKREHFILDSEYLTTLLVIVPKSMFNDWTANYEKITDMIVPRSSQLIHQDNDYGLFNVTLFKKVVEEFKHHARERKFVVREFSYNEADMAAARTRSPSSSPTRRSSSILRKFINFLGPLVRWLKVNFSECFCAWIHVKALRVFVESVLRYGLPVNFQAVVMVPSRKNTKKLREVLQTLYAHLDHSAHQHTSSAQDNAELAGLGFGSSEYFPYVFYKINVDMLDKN

T3: Helicoverpa armigera chitin deacetylase (Helicoverpa armigera)
T3 construct: the tag is not part of the printed entry; also called CDA; target CDA antigen
T3 chain: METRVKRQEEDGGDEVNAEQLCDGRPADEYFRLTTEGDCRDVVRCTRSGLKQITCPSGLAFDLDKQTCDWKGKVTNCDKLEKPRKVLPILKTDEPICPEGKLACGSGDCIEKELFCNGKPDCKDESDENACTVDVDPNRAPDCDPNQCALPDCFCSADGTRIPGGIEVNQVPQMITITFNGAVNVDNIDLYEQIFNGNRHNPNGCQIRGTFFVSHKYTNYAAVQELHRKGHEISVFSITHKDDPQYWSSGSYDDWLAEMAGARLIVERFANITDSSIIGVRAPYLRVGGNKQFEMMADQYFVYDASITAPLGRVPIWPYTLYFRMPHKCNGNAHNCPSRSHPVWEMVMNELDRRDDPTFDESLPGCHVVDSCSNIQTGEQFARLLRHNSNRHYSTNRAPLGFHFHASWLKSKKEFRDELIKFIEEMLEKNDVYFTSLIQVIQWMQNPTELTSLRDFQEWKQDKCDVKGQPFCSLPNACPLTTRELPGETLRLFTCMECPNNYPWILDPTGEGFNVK

T4: Helicoverpa armigera NPC1 sterol transporter (Helicoverpa armigera)
T4 construct: the tag is not part of the printed entry; also called target NPC antigen; target NPC1 antigen
T4 chain: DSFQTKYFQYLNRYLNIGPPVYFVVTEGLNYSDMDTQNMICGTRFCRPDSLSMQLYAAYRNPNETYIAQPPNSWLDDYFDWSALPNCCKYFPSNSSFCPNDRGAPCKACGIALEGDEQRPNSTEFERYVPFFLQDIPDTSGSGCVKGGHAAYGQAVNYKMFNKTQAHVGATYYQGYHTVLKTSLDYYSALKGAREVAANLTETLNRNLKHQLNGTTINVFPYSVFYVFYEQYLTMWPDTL

T5: Helicoverpa armigera chitin synthase (Helicoverpa armigera)
T5 construct: the tag is not part of the printed entry; also called CHS; target CHS antigen
T5 chain: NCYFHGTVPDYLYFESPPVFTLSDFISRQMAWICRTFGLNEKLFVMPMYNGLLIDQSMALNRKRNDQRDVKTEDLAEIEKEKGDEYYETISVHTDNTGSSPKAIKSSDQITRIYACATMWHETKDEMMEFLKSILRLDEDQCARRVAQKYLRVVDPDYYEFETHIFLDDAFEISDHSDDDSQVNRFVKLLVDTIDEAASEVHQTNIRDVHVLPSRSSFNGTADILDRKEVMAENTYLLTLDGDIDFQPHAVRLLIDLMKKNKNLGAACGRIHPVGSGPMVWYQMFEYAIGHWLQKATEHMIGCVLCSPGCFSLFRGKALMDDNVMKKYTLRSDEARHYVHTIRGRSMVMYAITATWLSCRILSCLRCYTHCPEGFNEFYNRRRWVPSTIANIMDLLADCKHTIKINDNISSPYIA

B1: TRH1A (VHH)
VHH: QVQLQESGGGLVQAGGSLRLSCATSGRAFTNYHMGWFRQTPGKEREFVALISWSGDSTRYADSVKGRFTISRDNAKRTVALQMDSLKPEDSAVYYCASRLVGQSQYEVWGQGTQVTVSS
notes: Llama nanobody, His-tagged, expressed in E. coli SHuffle T7; also called anti-TRH nanobody TRH1A
B2: TRH12 (VHH)
VHH: QVQLQESGGGLVQAGGSLRLSCAASTSTVSDYHMGWFRQGPGKEREFVAAISWSGDSTDYADSVKARFTISRDNAKKTMSLQMNSLKPEDTAAYYCAARRVFKATWDYWGQGTQVTVSS
notes: Llama nanobody, His-tagged, expressed in E. coli SHuffle T7; also called anti-TRH nanobody TRH12
B3: TRH13 (VHH)
VHH: QVQLQESGGGLVQAGGSLRLTCAATVRIFSSYTMGWFRQSPGKEREFVGAITWSGGNTYYADSVKGRFTISRDNAKNTVYLQMNSLKSEDTAVYYCAADPGRSYVLSRYYDQASYDYWGQGTQVTVSS
notes: Llama nanobody, His-tagged, expressed in E. coli SHuffle T7; also called anti-TRH nanobody TRH13
B4: TRH14 (VHH)
VHH: QVQLQESGGGLVQAGDSLRLSCAASGRPFSSYTMGWFRQAPGKEREFVAAISWSGGTTYYTDSVQGRFTISRDNAKNTVYLQMNRLKPEDTAVYYCATDVGRIYGGGSLYSSAFSYDYWGQGTQVTVSS
notes: Llama nanobody, His-tagged, expressed in E. coli SHuffle T7; also called anti-TRH nanobody TRH14
B5: VAT0101B (VHH)
VHH: QVQLQESGGGLVQAGGSLRLSCAASGSTLSGYIMSWFRQPPGKERELVAAITYVGSTYVEDSVKGRFTISRDNAKNTVSLQMNSLKPEDTAVYYCRAREGEQLDFWGQGTQVTVSS
notes: Llama nanobody, His-tagged, expressed in E. coli SHuffle T7; also called anti-VAT nanobody VAT0101B
B6: VAT0101C (VHH)
VHH: B5 VHH with A14S, G16D, L29F
notes: Llama nanobody, His-tagged, expressed in E. coli SHuffle T7; also called anti-VAT nanobody VAT0101C
B7: VAT0101D (VHH)
VHH: B5 VHH with A14P, A23V, L29F
notes: Llama nanobody, His-tagged, expressed in E. coli SHuffle T7; also called anti-VAT nanobody VAT0101D
B8: VAT0101E (VHH)
VHH: B5 VHH with G16D, L29F
notes: Llama nanobody, His-tagged, expressed in E. coli SHuffle T7; also called anti-VAT nanobody VAT0101E
B9: VAT0101F (VHH)
VHH: B5 VHH with L11T, L29F
notes: Llama nanobody, His-tagged, expressed in E. coli SHuffle T7; also called anti-VAT nanobody VAT0101F
B10: VAT0101G (VHH)
VHH: B5 VHH with L29F, Y58W, V59Y, E60Q
notes: Llama nanobody, His-tagged, expressed in E. coli SHuffle T7; also called VATO101G; anti-VAT nanobody VAT0101G
B11: CDA01A (VHH)
VHH: QVQLQESGGGLVQAGGSLRLSCAASGRTFNTYAMGWFRQAPGKEREFVAAMNRDGSTVLYADSVKGRFAISKDNAKNTGYLQMNSLKPEDTAIYYCAANARYSDYTDGQSFVSWGQGTQVTVSS
notes: Llama nanobody, His-tagged, expressed in E. coli SHuffle T7; also called CDA1a; anti-CDA nanobody CDA01A
B12: NPC01C01 (VHH)
VHH: QVQLQESGGGLVQVGGSLRISCVASGRTGSYYAMGWFRQAPGKEREFVAAISWNGGMTDYADFVKGRFAISRDNAKTVSLQMNNLKPEDTALYYCTAGPARRSYSYRDGYDYWGQGTQVTVSS
notes: Llama nanobody, His-tagged, expressed in E. coli SHuffle T7; also called NPC1c; anti-NPC nanobody NPC01C01
B13: NPC04C01 (VHH)
VHH: QVQLQESGGGLVQAGGSLRLSCAASGRTFSSYVMGWFRQAPGKERELIGAINRSSTRLYYADSVKGRFSISRDNAKSTVYLQMNSLKPEDTAVYYCAADLVSILGKGYRDVDYWGQGTQVTVSS
notes: Llama nanobody, His-tagged, expressed in E. coli SHuffle T7; also called NPC4c; NPC4C
B14: NPC04D01 (VHH)
VHH: B13 VHH with A14P, L20V, R27F, T28S, S31N
notes: Llama nanobody, His-tagged, expressed in E. coli SHuffle T7; also called NPC4d; NPC4D
B15: NPC07A01 (VHH)
VHH: QVQLQESGGGLVQAGDSLRISCKASGRTFSSYPIGWFRQAPGKEREFVAAISRSGGRTYYADSVKGRLTISRDNAKNTVYLQMNSLKLEDTAVYYCAAKTTMGLPVGGTYEYDYWGQGTQVTVSS
notes: Llama nanobody, His-tagged, expressed in E. coli SHuffle T7; also called NPC7a; anti-NPC nanobody NPC07A01
B16: NPC0901 (VHH)
VHH: QVQLQESGGGLVQAGDSLRISCKASGRTFSNYPIGWFRQAPGKEREFVAAISRSGGGTRYADSVKGRFTISRDNAKNTVYLQMNSLKRDDTAVYYCAAYFGNLGGGVGRSSDYDYWGQGTQVTVSS
notes: Llama nanobody, His-tagged, expressed in E. coli SHuffle T7; also called NPC9; anti-NPC nanobody NPC0901
B17: CHS01A (VHH)
VHH: QVQLQESGGGLVQAGGSLRLSCSASTSIASINAVGWYRQAPGKQRELVAVIVNGSTTRYADSVKGRFTISGDNAENTVPLLMSSLKPEDTAIYYCGARDLSGTYWGQGTQVTVSS
notes: Llama nanobody, His-tagged, expressed in E. coli SHuffle T7; also called CHS1a; anti-CHS nanobody CHS01A
B18: CHS02A (VHH)
VHH: QVQLQESGGGLVQAGGSLRLSCAASRGTFSRYVMGWFRQGPGKEREFVAGISWSGISTYYADFVKGRFTISRDNAKNTVYLQMNSLKPEDTAVYYCAADPGRGYDYWGQGTQVTVSS
notes: Llama nanobody, His-tagged, expressed in E. coli SHuffle T7; also called CHS2a; anti-CHS nanobody CHS02A
B19: CHS08 (VHH)
VHH: QVQLQESGGGLVQAGSSLRLSCAASGRTFRYHAMGWFRQAPGKEREFVAGISTSGGMTYYPDSVKGRFTISRDNAKNTLYLQMNSLKPGDTAVYYCAKFHGDKGYGSSWYYDYWGQGTQVTVSS
notes: Llama nanobody, His-tagged, expressed in E. coli SHuffle T7; also called CHS8; anti-CHS nanobody CHS08
B20: CHS13 (VHH)
VHH: QVQLQESGGGLVQAGGSLRLSCTVSGGTFTTYTMAWFRQAPGKEREFVAQISWSGGITAYLDSVKGRFTISRDNAKNTVYLQMNSLKPEDTAVYYCARRGRKYEDDYWGQGTQVTVSS
notes: Llama nanobody, His-tagged, expressed in E. coli SHuffle T7; also called anti-CHS nanobody CHS13
B21: CHS18 (VHH)
VHH: QVQLQESGGGLVQAGGSLRLSCTASGRTFSSYSMAWFRQASGKEREIVAAVSRFGKFKYYADSVKGRFTISRDNAKNTLYLQMNSLKPEDTAVYYCAKTDGSSWYLDYWGQGTQVTVSS
notes: Llama nanobody, His-tagged, expressed in E. coli SHuffle T7; also called anti-CHS nanobody CHS18
B22: CHS22 (VHH)
VHH: QVQLQESGGGLVQAGGSLRLSCAASGGTFSGLTMGWFRQAPGKERDFVAAISWNGRFTYYKDSVKGRFAISRDNAKSTVYLQMTSLKPEDTAVYYCGADVLSGRGYRYWGQGTQVTVSS
notes: Llama nanobody, His-tagged, expressed in E. coli SHuffle T7; also called anti-CHS nanobody CHS22
B23: CHS24 (VHH)
VHH: QVQLQESGGGWVQPGGSLRLSCTISGLSRYYAMGWFRQVPGKERESVATISLRGGRTYYADSVEGRFTISRDNAKNTMYLQMNSLKPEDTAVYYCVADTTWGAPRSRYHYWGQGTQVTVSS
notes: Llama nanobody, His-tagged, expressed in E. coli SHuffle T7; also called anti-CHS nanobody CHS24

Target: T1, Helicoverpa armigera trehalase
Assay: ELISA, plate coated with 10 ug/ml target protein, 2 ug/ml nanobody, anti-VHH-HRP, A450

| Binder | binding result |
| --- | --- |
| B1 | binds |
| B2 | binds |
| B3 | binds |
| B4 | binds |

Target: T2, Helicoverpa armigera V-ATPase subunit c
Assay: as above

| Binder | binding result |
| --- | --- |
| B5 | binds |
| B6 | binds |
| B7 | binds |
| B8 | binds |
| B9 | binds |
| B10 | binds |

Target: T3, Helicoverpa armigera chitin deacetylase
Assay: as above

| Binder | binding result |
| --- | --- |
| B11 | binds |

Target: T4, Helicoverpa armigera NPC1 sterol …
Assay: as above

| Binder | binding result |
| --- | --- |
| B12 | binds |
| B13 | binds |
| B14 | binds |
| B15 | binds |
| B16 | binds |

Target: T5, Helicoverpa armigera chitin synthase
Assay: as above

| Binder | binding result |
| --- | --- |
| B17 | binds |
| B18 | binds |
| B19 | binds |
| B20 | binds |
| B21 | binds |
| B22 | binds |
| B23 | binds |
